Laboratory results from PMC10397247.
Where two headings read alike, the source gives them in different places.

Columns and labels:
4H406-AA = biological target: T1, 4H406-AA; assay: two-hybrid library CCmax;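 also: natural log of median RNA to DNA barcode read ratio; higher means stronger binding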
T1 chain: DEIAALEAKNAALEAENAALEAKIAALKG

4H452-AA = biological target: T2, 4H452-AA; assay: two-hybrid library CCmax; details: mean of both orientations;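 also: natural log of median RNA to DNA barcode read ratio; higher means stronger binding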
T2 chain: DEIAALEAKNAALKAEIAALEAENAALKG

4H56-AA = biological target: T3, 4H56-AA; assay: two-hybrid library CCmax; details: mean of both orientations;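 also: natural log of median RNA to DNA barcode read ratio; higher means stronger binding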
T3 chain: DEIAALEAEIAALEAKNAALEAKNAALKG

4H688-AA = biological target: T4, 4H688-AA; assay: two-hybrid library CCmax;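 also: natural log of median RNA to DNA barcode read ratio; higher means stronger binding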
T4 chain: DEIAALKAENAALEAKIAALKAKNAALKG

4H963-AA = biological target: T5, 4H963-AA; assay: two-hybrid library CCmax; details: mean of both orientations;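 also: natural log of median RNA to DNA barcode read ratio; higher means stronger binding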
T5 chain: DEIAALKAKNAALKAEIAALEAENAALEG

4H_APH = biological target: T6, 4H_APH; assay: two-hybrid library CCmax; details: mean of both orientations;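 also: natural log of median RNA to DNA barcode read ratio; higher means stronger binding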
T6 chain: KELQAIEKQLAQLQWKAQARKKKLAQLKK

4H_BCR = biological target: T7, 4H_BCR; assay: two-hybrid library CCmax; details: mean of both orientations
T7 chain: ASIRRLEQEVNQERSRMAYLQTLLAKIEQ

4H_GCN4 = assay: two-hybrid library CCmax
GCN2_T = assay: two-hybrid library CCmax
4H591-bH = biological target: T8, 4H591-bH; assay: two-hybrid library CCNG1
T8 chain: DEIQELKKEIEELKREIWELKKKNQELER

4H626-bH = biological target: T9, 4H626-bH; assay: two-hybrid library CCNG1
T9 chain: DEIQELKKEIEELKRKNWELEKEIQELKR

4H906-bH = biological target: T10, 4H906-bH; assay: two-hybrid library CCNG1
T10 chain: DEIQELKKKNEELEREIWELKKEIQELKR

4H953-AA = biological target: T11, 4H953-AA; assay: two-hybrid library CCmax
T11 chain: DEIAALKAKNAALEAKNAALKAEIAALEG

4H967-AA = biological target: T12, 4H967-AA; assay: two-hybrid library CCmax; details: mean of both orientations
T12 chain: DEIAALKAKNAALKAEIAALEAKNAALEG

4H_GCN4, sequence (chain, as listed by the source): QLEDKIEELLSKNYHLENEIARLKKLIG

DEIAALEAKNAALEAENAALEAKIAALKG [4H406-AA] gave an interaction score (4H406-AA) of -0.644, an interaction score (4H452-AA) of -0.548 and an interaction score (4H56-AA) of -1.47. The interaction score (4H688-AA; mean of both orientations) was -1.54, the interaction score (4H963-AA) was -1.6 and the interaction score (4H_APH) was -1.29. For the same binder, the interaction score (4H_BCR) was -2.11, the interaction score (4H_GCN4) was -1.67 and the interaction score (GCN2_T) was -1.43.

In the case of DEIQELKKEIEELKREIWELKKKNQELER [4H591-bH], the interaction score (4H591-bH) is reported as 1.58, the interaction score (4H626-bH) is reported as -0.53 and the interaction score (4H906-bH) is reported as -0.784.

DEIAALKAENAALEAKIAALKAKNAALKG [4H688-AA] was tested, and the interaction score (4H688-AA) was -1.23 and the interaction score (4H963-AA) was 1.46.

Binder DEIAALKAKNAALEAKNAALKAEIAALEG [4H953-AA] has an interaction score (4H953-AA) of -1.02 and an interaction score (4H967-AA) of -1.73.
